In the assay the target is VSG on Trypanosoma brucei brucei AnTat 1.1 parasites (Trypanosoma brucei brucei AnTat 1.1). Nature of the assay: cell-based or functional assay. Conditions: scale: % of the parasites lysed at 10 μg/ml.
VSG on Trypanosoma brucei brucei AnTat 1.1 parasites (Trypanosoma brucei brucei AnTat 1.1), sequence (P06015 30-480): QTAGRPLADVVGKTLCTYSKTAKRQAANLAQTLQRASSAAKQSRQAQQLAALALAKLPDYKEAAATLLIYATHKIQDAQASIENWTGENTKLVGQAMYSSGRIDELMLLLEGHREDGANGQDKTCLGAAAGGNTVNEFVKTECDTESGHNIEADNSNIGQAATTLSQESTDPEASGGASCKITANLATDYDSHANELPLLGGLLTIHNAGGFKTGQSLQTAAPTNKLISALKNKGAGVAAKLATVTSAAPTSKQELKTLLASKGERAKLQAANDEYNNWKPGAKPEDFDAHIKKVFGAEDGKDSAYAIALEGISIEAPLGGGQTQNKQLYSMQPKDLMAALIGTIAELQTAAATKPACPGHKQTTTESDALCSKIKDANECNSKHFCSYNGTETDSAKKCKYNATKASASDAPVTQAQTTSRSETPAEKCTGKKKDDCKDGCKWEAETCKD

In turn, “NbAn33-Tr-apoL-I (from UniProt O14791 28-342)” gave a trypanolytic activity of 100.

The values above are taken from WO2007039645A1.
